Laboratory results from patent US10213494B2, “Treatment of synucleinopathies” (The Brigham and Women's Hospital, Inc., priority 2007, dated 2019).

Legend:
GBA = conditions: Lieberman R et al., (2007); cited from earlier work
MES-syn cells = experiment: LDH release assay of cellular integrity; assay type: cell-based, rodent; conditions: enzyme cDNA 5 μg/10 cm dish, versus control vector transfected cells
Procedure: To confirm that the effect of Cathepsin D on lowering of αS in MES23.5 cells was specific and was not caused by a general decrease in cellular metabolism and integrity, the MTT and LDH assays were performed on MES-syn cells that had been co-transfected with the highest amount of Cathepsin D-encoding cDNA (5 μg/10 cm dish). Lysis of cells with 0.1% Triton-X® 100 served as a positive control, representing maximal cell death.
To confirm that the effect of Cathepsin F on lowering of αS was specific and was not caused by a general decrease in cellular integrity, the LDH assay was performed on MES-syn cells that had been co-transfected with Cathepsin F-encoding CTSF cDNA (5 μg/10 cm dish). Lysis of cells with 0.1% Triton-X 100 served as a positive control for cell toxicity, promoting maximal cell death.

[1] = test system: α-synuclein protein (wild-type, human) in MES23.5 cells; experiment: Sandwich ELISA of intracellular α-synuclein in MES23.5 cells co-transfected with wild-type human SNCA cDNA and lysosomal enzyme cDNA; assay type: cell-based; conditions: cathepsin F cDNA 5 μg/10 cm dish, 24 hours, n=3
[2] = test system: α-synuclein protein (wild-type, human) in MES23.5 cells; experiment: as above; assay type: cell-based; conditions: GBA variant plasmid 5 μg per 10 cm dish + 0.5 μg SNCA cDNA, 24 hours after transfection, no prosaposin; mean+/−sem
Procedure: Sera from six rabbits were raised and affinity-purified at Open Biosystems, Inc. (openbiosystems.com) against recombinant, full-length human αS. Recombinant αS had been HPLC- and MS-characterized and subjected to amino acid composition and protein concentration analyses. For ELISA, 384-well MaxiSorp plates (Nunc, Inc) were coated with 50 μl/well capturing polyclonal Ab (hSA-2) diluted in coating buffer (NaHCO3 with 0.2% NaN3, pH 9.6). Following washes with PBS/0.05% Tween-20 (PBS-T), plates were blocked for 2 hours at 37° C. in blocking buffer (1.125% fish skin gelatin; PBS-T). After 4 washes, samples were loaded and incubated at 4° C. for 12 hours. Biotinylated Syn-1 mAb (as the assaying Ab) was generated using 200 μg Sulfo-NHS-LC Biotin (Pierce), diluted in blocking buffer and added to the plate for 2 hours at 37° C. Following 4 washes, ExtrAvidin phosphatase (Sigma) diluted in blocking buffer was applied for 1 hr at 37° C. Color development was carried out by using Fast-p-Nitrophenyl Phosphate (Sigma) and monitored kinetically at OD 405 nm every 5 minutes for up to 60 minutes.
To optimize a ‘DNA: LIPOFECTAMINE® 2000’ ratio with low cell toxicity, MES23.5 cells were transfected with either 0.25, 0.5 or 1 μg αS-encoding, wild-type, human SNCA cDNA plus empty vector cDNA up to a total of 5.5 μg DNA per 10 cm dish. 24 hours after transfection, cell lysates were harvested as described above. For serial dilutions of cell lysates, blocking buffer containing 0.5% lysate from vector-transfected wells was used as diluent, which was also used to create the blank and the corresponding standard curve of recombinant human αS. Saturation kinetics were examined for identification of time point(s) where standards and sample dilutions were in the log phase.
MES cells were transfected with 0.5 μg per 10 cm dish of αS-encoding SNCA cDNA-carrying plasmid, plus 5 μg per 10 cm dish of wild-type or mutant, human GBA-encoding plasmid. The GBA variants used were wild type, N370S, D409H, L444P, E235A, and E340A. These 5 GBA mutants were created by site-directed mutagenesis, using the Quickchange® kit (Stratagene), and sequence-verified. The N370S, D409H and L444P are known to occur (in the homozygous or compound heterozygous state) in Gaucher disease in the heterozygous state in Parkinson Disease patients and/or patients with dementia with Lewy bodies. The E235A and E340A mutant GBA proteins are not known to occur in people.
24 hours after transfection, MES cells were lysed as described above and all lysates were analyzed by ELISA. […] This is in contrast to the result observed in Example 5 above. The observed discrepancy can reflect the differences in total DNA transfected in the two paradigms (FIG. 2B; FIG. 2C versus FIG. 4), thereby leading to changes in the DNA:LIPOFECTAMINE® 2000 ratio, and in the role of co-expressed prosaposin (saposin C). It is therefore conceivable that wild-type GBA can have variable effects on αS levels in these MES23.5 cells, depending on the rate of αS import into lysosomes and the composition as well as activation state of more than one lysosomal enzyme.
MES23.5 cells were transfected with 0.5 μg per 10 cm dish of an αS-encoding, wild-type, human SNCA cDNA-carrying plasmid (referred to as MES-hSNCA WT cells in the Western blot shown in FIG. 6), plus either 1.25, 2.5 or 5 μg per 10 cm dish of a human Cathepsin D-encoding CTSD cDNA plasmid, which was purchased from OriGene Technologies, Inc., and was under the control of a CMV promoter. The Cathepsin D clone was fully sequence-verified after isolation and maxiprep. Each transfection arm was balanced with empty vector DNA up to a total of 5.5 μg DNA per 10 cm dish. 24 hours after transfection, cells were lysed, and the resulting lysates were analyzed by the sandwich ELISA described herein. […]

[3] = test system: α-synuclein protein in MES23.5 cells; experiment: Western blot of α-synuclein in co-transfected MES23.5 cells; assay type: cell-based, human; conditions: 24 hours
Procedure: Cells were transfected with 0, 0.25, 0.5, 1, 5, and 10 μg (per 10 cm dish) of plasmid. 24 hours later, cells were washed with Tris-buffered saline and lysed in 140 mM NaCl, 50 mM Tris-Hcl, pH 8.0, 1 mM EDTA, 0.5% Triton-X100, and 1× protease inhibitors. Lysates were centrifuged at 100,000×g for 30 min at 4° C.; the top 2/3 of supernatants were removed and frozen in siliconized tubes at −80° C. Samples were run on SDS/PAGE, using 1 mM DTT as the reducing agent. Expression of the αS protein was confirmed at 24 hours post-transfection by Western blotting, where cell lysates were probed with a monoclonal antibody against αS protein (syn-1 antibody, BD Transduction Labs).
MES23.5 cells were transfected with 0.5 μg αS-encoding SNCA cDNA per 10 cm dish plus either 1.25, 2.5 or 5 μg (low, medium, or high) GBA-encoding cDNA in the absence or presence of 5 μg of Prosaposin-encoding cDNA. All arms of the experiment were balanced up to a total of 10.5 μg cDNA per 10 cm dish using empty vector cDNA. The GBA- and Prosaposin-encoding cDNA plasmids under a CMV promoter, as well as the pCMV-XL5 empty vector were purchased from OriGene Technologies, Inc (clones had been fully sequence-verified after isolation and a maxiprep). 24 hours later, cells were lysed and probed for GBA and αS protein levels. The upper panel in of FIG. 2B3 is a representation of a Western Blot indicating expression of GBA protein in the absence and presence of co-transfected prosaposin. GBA was probed using the monoclonal antibody 8E4. GBA over-expression occurred in a slightly gene-dosage dependent way in the absence of prosaposin. In the presence of prosaposin over-expression, the GBA signal itself was decreased. […]

## OC[C@H]1CNC[C@@H](O)[C@@H]1O [isofagomine]
GBA
  effect on GBA activity: increase GBA activity in mice and humans

B1: cathepsin F: human lysosomal cysteine protease expressed from CTSF plasmid under a CMV promoter (protein, UniProt Q9UBX1 271-484, looked up)
Cathepsin F: APPEWDWRSKGAVTKVKDQGMCGSCWAFSVTGNVEGQWFLNQGTLLSLSEQELLDCDKMDKACMGGLPSNAYSAIKNLGGLETEDDYSYQGHMQSCNFSAEKAKVYINDSVELSQNEQKLAAWLAKRGPISVAINAFGMQFYRHGISRPLRPLCSPWLIDHAVLLVGYGNRSDVPFWAIKNSWGTDWGEKGYYYLHRGSGACGVNTMASSAVVD
MES-syn cells
  LDH signal: less than or equal to that of control vector transfected cells
[1]
  intracellular α-synuclein level, % of control levels: 51.7+/−14.1%

B2: wild-type GBA: human acid-beta-glucocerebrosidase expressed from GBA-encoding cDNA plasmid under a CMV promoter (protein, UniProt P04062 40-536, looked up)
Lysosomal acid …: ARPCIPKSFGYSSVVCVCNATYCDSFDPPTFPALGTFSRYESTRSGRRMELSMGPIQANHTGTGLLLTLQPEQKFQKVKGFGGAMTDAAALNILALSPPAQNLLLKSYFSEEGIGYNIIRVPMASCDFSIRTYTYADTPDDFQLHNFSLPEEDTKLKIPLIHRALQLAQRPVSLLASPWTSPTWLKTNGAVNGKGSLKGQPGDIYHQTWARYFVKFLDAYAEHKLQFWAVTAENEPSAGLLSGYPFQCLGFTPEHQRDFIARDLGPTLANSTHHNVRLLMLDDQRLLLPHWAKVVLTDPEAAKYVHGIAVHWYLDFLAPAKATLGETHRLFPNTMLFASEACVGSKFWEQSVRLGSWDRGMQYSHSIITNLLYHVVGWTDWNLALNPEGGPNWVRNFVDSPIIVDITKDTFYKQPMFYHLGHFSKFIPEGSQRVGLVASQKNDLDAVALMHPDGSAVVVVLNRSSKDVPLTIKDPAVGFLETISPGYSIHTYLWRRQ
[2]
  intracellular α-synuclein level, % of vector cDNA control levels: 109.7+/−9.88%
[3]; GBA cDNA 1.25, 2.5 or 5 μg + 0.5 μg SNCA cDNA, absence of co-transfected prosaposin
  α-synuclein protein level by Western blot: lowered the co-expressed α-synuclein protein levels at the largest amount of co-transfected GBA cDNA
[3]; GBA cDNA low/medium/high with 5 μg Prosaposin-encoding cDNA
  α-synuclein protein level by Western blot: strong decrease in α-synuclein protein levels at even the lower concentrations
